The chains are these.
T1: myc-tagged isoleucyl-tRNA synthetase (IRS) (UniProt P41252 1-1262)
T1 construct: also called myc-tagged IRS; not shown: myc tag
T1 sequence (looked up): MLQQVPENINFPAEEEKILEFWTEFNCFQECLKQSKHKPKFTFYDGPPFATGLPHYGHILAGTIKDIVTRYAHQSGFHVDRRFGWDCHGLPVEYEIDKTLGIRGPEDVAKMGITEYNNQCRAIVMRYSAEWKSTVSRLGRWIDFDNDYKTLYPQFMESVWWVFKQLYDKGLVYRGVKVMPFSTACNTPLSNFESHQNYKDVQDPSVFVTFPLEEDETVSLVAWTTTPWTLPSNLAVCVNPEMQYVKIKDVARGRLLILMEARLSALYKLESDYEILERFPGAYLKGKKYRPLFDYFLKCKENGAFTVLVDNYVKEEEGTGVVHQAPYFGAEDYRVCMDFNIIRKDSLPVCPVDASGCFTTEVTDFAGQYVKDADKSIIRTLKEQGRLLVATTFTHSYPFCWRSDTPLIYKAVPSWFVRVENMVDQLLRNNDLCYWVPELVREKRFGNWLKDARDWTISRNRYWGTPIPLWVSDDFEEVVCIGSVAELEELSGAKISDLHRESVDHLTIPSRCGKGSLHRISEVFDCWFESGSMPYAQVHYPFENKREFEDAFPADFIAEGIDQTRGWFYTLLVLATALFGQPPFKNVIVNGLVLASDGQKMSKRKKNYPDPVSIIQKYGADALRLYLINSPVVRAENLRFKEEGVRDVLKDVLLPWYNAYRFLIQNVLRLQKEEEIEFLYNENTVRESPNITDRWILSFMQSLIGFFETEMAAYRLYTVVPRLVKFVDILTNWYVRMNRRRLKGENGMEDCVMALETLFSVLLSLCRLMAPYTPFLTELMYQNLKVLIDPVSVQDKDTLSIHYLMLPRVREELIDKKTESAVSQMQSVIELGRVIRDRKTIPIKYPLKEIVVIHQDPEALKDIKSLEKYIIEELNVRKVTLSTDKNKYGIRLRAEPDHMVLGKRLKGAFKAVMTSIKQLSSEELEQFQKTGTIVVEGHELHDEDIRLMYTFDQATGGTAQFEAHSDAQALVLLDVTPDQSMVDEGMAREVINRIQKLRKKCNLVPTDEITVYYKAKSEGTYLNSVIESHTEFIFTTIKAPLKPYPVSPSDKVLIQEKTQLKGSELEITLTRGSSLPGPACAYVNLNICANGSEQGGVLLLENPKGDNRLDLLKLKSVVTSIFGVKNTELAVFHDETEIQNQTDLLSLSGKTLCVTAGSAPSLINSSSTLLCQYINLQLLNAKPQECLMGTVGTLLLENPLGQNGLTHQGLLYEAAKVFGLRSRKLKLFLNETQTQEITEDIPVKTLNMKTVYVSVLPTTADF

T2: myc-tagged methionyl-tRNA synthetase (MRS) (UniProt P56192 1-900)
T2 construct: also called myc-tagged MRS; not shown: myc tag
T2 sequence (looked up): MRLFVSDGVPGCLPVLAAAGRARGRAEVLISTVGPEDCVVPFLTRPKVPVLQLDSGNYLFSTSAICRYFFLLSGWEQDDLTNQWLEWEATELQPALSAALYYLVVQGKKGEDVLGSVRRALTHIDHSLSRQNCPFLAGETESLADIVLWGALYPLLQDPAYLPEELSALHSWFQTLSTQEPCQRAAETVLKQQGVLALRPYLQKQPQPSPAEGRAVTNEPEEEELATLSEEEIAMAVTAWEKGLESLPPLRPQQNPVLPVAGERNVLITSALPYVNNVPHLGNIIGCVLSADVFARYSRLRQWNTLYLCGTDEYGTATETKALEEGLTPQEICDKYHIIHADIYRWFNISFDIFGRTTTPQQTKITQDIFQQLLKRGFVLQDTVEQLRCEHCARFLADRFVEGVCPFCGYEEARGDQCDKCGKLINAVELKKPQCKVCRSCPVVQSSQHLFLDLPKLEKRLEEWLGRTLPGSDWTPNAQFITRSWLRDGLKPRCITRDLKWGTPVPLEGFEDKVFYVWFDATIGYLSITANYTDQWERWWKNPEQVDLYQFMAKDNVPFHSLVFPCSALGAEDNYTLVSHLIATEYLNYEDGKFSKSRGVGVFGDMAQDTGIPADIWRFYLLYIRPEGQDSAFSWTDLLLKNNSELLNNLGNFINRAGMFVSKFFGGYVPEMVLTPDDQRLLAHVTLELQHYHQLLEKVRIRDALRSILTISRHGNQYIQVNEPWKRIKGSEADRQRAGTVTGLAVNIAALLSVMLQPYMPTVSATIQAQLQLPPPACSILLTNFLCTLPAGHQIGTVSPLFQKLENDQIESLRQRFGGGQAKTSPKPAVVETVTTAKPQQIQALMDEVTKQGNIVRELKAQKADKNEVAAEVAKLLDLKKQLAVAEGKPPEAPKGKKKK

T3: His-LRS-(759-1176) (Homo sapiens (Human), UniProt Q9P2J5 759-1176)
T3 construct: not shown: His tag from pET16a vector
T3 sequence: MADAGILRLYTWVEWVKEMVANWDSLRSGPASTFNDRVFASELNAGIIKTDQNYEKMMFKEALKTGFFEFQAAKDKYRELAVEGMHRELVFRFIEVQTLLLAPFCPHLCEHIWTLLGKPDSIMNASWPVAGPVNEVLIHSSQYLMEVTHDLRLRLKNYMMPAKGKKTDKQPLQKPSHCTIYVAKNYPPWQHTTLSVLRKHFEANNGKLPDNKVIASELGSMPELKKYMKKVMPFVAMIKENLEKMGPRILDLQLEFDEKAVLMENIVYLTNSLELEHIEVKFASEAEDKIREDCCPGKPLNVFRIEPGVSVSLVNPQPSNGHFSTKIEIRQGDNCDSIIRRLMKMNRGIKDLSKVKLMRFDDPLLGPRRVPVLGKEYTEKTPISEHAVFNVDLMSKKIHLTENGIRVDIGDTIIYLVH

B1: GST-LRS fragment 971-1176 (enzyme)
chain: VIASELGSMPELKKYMKKVMPFVAMIKENLEKMGPRILDLQLEFDEKAVLMENIVYLTNSLELEHIEVKFASEAEDKIREDCCPGKPLNVFRIEPGVSVSLVNPQPSNGHFSTKIEIRQGDNCDSIIRRLMKMNRGIKDLSKVKLMRFDDPLLGPRRVPVLGKEYTEKTPISEHAVFNVDLMSKKIHLTENGIRVDIGDTIIYLVH
notes: not shown: glutathione S-transferase (GST) fusion tag
B2: endogenous RagD of 293T cells (enzyme, UniProt Q9NQL2 1-400, looked up)
chain: MSQVLGKPQPQDEDDAEEEEEEDELVGLADYGDGPDSSDADPDSGTEEGVLDFSDPFSTEVKPRILLMGLRRSGKSSIQKVVFHKMSPNETLFLESTNKICREDVSNSSFVNFQIWDFPGQIDFFDPTFDYEMIFRGTGALIFVIDSQDDYMEALARLHLTVTRAYKVNTDINFEVFIHKVDGLSDDHKIETQRDIHQRANDDLADAGLEKIHLSFYLTSIYDHSIFEAFSKVVQKLIPQLPTLENLLNIFISNSGIEKAFLFDVVSKIYIATDSTPVDMQTYELCCDMIDVVIDISCIYGLKEDGAGTPYDKESTAIIKLNNTTVLYLKEVTKFLALVCFVREESFERKGLIDYNFHCFRKAIHEVFEVRMKVVKSRKVQNRLQKKKRATPNGTPRVLL
notes: Endogenous protein in 293T cell lysates, detected with anti-RagD antibody
B3: HA-tagged RagD (enzyme, UniProt Q9NQL2 1-400, looked up)
chain: B2 chain
notes: Expressed in 293T cells, used as cell lysate; also called HA-RagD; not shown: HA tag
B4: GST-RagD (RagD-(1-400)) (enzyme, UniProt Q9NQL2 1-400, looked up)
chain: B2 chain
notes: range 1-400; Expressed in E. coli BL21, purified on GSH agarose; also called peptide spanning aa 1-400 of RagD; RagD protein; not shown: glutathione S-transferase (GST) tag from pGEX4T3 vector (GE healthcare)

The assay “HA-tagged RagD” concerns the target B3. The assay is described as follows: in vitro GST pull-down of HA-RagD lysate, anti-HA blot (FIG. 3h). How it is done:
Binding assay was conducted in 25 mM Tris-HCl buffer (pH7.4) containing 10 mM NaCl, 1 mM MgCl₂, 1 mM EDTA, 0.5 mM EGTA, and 0.5% Triton X-100.

Assay [1] concerns the target T4, endogenous LRS of 293T cells (Homo sapiens (Human), UniProt Q9P2J5 1-1176).
T4 construct: Endogenous protein in HEK293T cell lysates, detected with anti-LRS antibody
The assay is described as follows: immunoprecipitation of 293T lysates with anti-Raptor antibody, anti-LRS and anti-RagD blots (FIG. 4a). How it is done:
293T cells were starved for amino acids for 1 hour and re-stimulated with amino acids for 5 min.

Assay [2] deals with T5, myc-tagged glutamyl-prolyl-tRNA synthetase (EPRS) (UniProt P07814 1-1512).
T5 construct: also called myc-tagged EPRS; not shown: myc tag
T5 sequence (P07814 whole entry): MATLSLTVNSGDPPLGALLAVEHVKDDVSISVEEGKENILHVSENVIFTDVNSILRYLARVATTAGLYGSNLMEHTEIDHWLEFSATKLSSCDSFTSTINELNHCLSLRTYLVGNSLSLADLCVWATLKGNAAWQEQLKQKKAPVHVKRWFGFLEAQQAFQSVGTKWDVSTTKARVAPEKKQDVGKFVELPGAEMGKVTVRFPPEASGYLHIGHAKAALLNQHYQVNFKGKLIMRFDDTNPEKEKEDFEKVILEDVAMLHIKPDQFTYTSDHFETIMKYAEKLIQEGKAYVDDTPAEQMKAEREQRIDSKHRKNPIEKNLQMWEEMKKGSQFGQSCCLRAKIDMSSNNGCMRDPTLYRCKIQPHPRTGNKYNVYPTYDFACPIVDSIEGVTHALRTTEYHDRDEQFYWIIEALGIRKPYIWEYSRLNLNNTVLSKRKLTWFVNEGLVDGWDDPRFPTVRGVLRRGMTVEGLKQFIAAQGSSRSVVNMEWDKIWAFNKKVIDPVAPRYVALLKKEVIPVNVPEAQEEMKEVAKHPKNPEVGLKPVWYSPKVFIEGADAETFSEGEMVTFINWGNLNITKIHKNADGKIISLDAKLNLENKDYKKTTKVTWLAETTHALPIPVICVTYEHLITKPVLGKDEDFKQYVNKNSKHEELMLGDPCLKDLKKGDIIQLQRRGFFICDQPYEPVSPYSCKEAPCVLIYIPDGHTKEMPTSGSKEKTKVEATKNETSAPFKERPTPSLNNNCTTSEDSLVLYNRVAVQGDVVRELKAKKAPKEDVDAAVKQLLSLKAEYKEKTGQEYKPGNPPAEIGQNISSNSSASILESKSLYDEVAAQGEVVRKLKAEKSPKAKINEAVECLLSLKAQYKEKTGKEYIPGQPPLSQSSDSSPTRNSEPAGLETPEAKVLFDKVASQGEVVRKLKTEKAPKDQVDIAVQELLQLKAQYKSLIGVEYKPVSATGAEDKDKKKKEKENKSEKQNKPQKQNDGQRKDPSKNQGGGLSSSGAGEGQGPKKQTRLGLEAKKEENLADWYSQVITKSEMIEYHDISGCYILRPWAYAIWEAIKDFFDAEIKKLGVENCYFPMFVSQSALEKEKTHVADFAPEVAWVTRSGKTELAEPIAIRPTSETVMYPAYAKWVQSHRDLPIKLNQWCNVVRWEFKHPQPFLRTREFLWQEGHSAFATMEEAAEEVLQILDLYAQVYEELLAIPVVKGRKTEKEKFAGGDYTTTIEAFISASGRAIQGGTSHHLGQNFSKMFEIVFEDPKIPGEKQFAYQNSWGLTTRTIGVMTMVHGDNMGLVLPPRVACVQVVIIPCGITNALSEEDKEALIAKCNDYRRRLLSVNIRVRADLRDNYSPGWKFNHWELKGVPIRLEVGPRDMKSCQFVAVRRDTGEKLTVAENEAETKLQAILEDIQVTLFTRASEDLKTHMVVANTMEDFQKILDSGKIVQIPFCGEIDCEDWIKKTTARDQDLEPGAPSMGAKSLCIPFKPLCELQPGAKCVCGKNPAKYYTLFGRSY
The assay is described as follows: co-immunoprecipitation with anti-HA antibody, anti-myc blot (FIG. 3c). How it is done:
(§1) The co-precipitated myc-tagged protein was determined by immunoblotting with anti-myc antibodies.

In assay [3] the target is T1, myc-tagged isoleucyl-tRNA synthetase …. The assay is described as above. On the procedure:
as §1

Assay [4] deals with T2, myc-tagged methionyl-tRNA synthetase …. Described as above. How it is done:
as §1

The target in the next assay is T3, His-LRS-(759-1176). In words: ELISA competition: His-LRS-(759-1176) added to GST-RagD on plate-coated His-LRS-(1-1176) (FIG. 13b). In general terms: In an ELISA, binding on a coated surface is turned into a signal by an enzyme label.
In another assay the target is T6, His-LRS-(1-1176) (Homo sapiens (Human), UniProt Q9P2J5 1-1176).
T6 construct: Expressed in E. coli BL21(DE3), purified on Ni-chelating agarose, coated on the ELISA plate; not shown: His tag from pET16a vector
In words: ELISA: plate coated with LRS-(1-1176) (500 ng/ml), GST-RagD detected with anti-GST antibody (FIG. 13a).

In the case of B1, the binding result with HA-tagged RagD is on record as “no binding”.

Turning to B2, the binding result in assay [1] was “binds”.

For the molecule B3, the binding result in assay [2], in assay [3] and in assay [4] was “no binding” each time.

For the molecule B4, the binding result with His-LRS-(759-1176) and with His-LRS-(1-1176) was “binds” each time.

The values are drawn from US20140249045A1 (MEDICINAL BIOCONVERGENCE RESEARCH CENTER, published 2014).
